Laboratory results taken from patent US20250277030A1, “ANTI-NAPI2B ANTIBODIES AND METHODS OF USE” (Zymeworks BC Inc., priority 2022, published 2025).

Experiments:
[1] = target: human sodium-dependent phosphate transporter 2B (NaPi2b) (human) (UniProt O95436); assay: flow cytometry competition on HEK293-6e cells expressing human NaPi2b; row antibody unlabeled at 100 µg/mL (the reference of the calculation); competitor: AF647-labeled v23855 at 1 µg/mL
[2] = target: human sodium-dependent phosphate transporter 2B (NaPi2b) (human) (UniProt O95436); assay: flow cytometry competition on HEK293-6e cells expressing human NaPi2b; row antibody unlabeled at 100 µg/mL (the reference of the calculation); competitor: AF647-labeled v18993 (lifastuzumab) at 1 µg/mL
[3] = target: human sodium-dependent phosphate transporter 2B (NaPi2b) (human) (UniProt O95436); assay: flow cytometry competition on HEK293-6e cells expressing human NaPi2b; row antibody unlabeled at 100 µg/mL (the reference of the calculation); competitor: AF647-labeled v18992 (MX35) at 1 µg/mL

Sequence of human sodium-dependent phosphate transporter 2B (NaPi2b) (human) (O95436 whole entry): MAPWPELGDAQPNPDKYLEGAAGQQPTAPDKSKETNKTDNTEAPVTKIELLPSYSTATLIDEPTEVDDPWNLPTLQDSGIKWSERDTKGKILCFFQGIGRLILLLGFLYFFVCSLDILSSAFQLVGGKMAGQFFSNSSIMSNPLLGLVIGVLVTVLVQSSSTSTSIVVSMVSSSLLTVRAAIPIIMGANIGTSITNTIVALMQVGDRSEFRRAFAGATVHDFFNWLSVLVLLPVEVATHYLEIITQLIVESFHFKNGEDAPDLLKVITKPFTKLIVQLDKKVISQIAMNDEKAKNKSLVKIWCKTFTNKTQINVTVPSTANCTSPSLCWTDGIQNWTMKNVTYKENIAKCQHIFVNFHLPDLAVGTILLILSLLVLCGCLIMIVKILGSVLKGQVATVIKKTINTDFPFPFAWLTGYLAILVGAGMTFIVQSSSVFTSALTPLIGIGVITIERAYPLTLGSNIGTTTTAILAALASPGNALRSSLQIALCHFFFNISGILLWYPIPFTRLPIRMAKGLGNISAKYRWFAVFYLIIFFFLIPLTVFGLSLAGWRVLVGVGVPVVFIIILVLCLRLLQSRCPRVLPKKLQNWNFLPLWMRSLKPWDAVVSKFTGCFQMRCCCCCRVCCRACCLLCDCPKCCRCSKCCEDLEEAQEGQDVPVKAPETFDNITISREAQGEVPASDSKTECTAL

% inhibition vs. irrelevant mAb [1]: 0%
% inhibition vs. irrelevant mAb [2]: 0%
% inhibition vs. irrelevant mAb [3]: 0%
Substance: v16955, palivizumab (anti-RSV) negative control (antibody)
